{"source": "the domain aggregation screens of Martell et al. (2025)"}
{"assay": "soluble fraction after stress (log2 fold change); higher = more stays soluble; pooled small domains, quantitative proteomics", "details": "stress: 75 degC"}
{"sequence": "HMSEQVQLQAQVEDDLIGKRLDQVVAQLFPDYSRSRLQGWIKDGSLTVDGESRRPRDKMMGGEVVRVEATL", "soluble fraction (log2)": 0.107}
{"sequence": "HMSEQVTMIDVEGKTETEAKKALEDLGLKVEITYESADAAAGTVIGQDVKAGSTVSEGSRVTLTVSGQ", "soluble fraction (log2)": 0.528}
{"sequence": "HMSERQTGTVKWFNNAKGFGFITMADRPDDIFVHFRAIQGDGYRSLNEGEEVEFSLVEGPKGLQAEEVTK", "soluble fraction (log2)": -0.0682}
{"sequence": "HMSESAGKAFDLLFYLAKAGETVSLARLSRETGMNKATALRYLNVLESKGVVERSKLGWTLGLSLFELGSK", "soluble fraction (log2)": -2.96}
{"sequence": "HMSESIFTLYGDEKFEKIRYYLKERGFITLDALARFDFDELLFVPGVSELLISEAKQLFSRYDTSSLAAKE", "soluble fraction (log2)": -0.584}
{"sequence": "HMSETAEFIIQVNGKVRAKLQLPTDISKEEIQKLALADENVQKYLNGEPRKIIFPPNTRLVSIV", "soluble fraction (log2)": -0.315}
{"sequence": "HMSETEEWTVEGGQAGDRIDRHVAAMLGDDVSRSQVQQWIRAGRVTVNGRAVKPSDTVEEGDRVAVDLPEP", "soluble fraction (log2)": -0.189}
{"sequence": "HMSETVYQYVARQLRDMLGSGEIPVGQQLPTYRELAKRFQVSLSVIQRAMRQLKAEAVVSIAHGQGVKAVR", "soluble fraction (log2)": -1.16}
{"sequence": "HMSEVPVLVAKTDIKELELIDDRKVTLINVPQKFKMPGSFNSPEEVYNTIAAVPIKEGEQITKPRVTWP", "soluble fraction (log2)": 0.0951}
{"sequence": "HMSEVSEILTRARFFAGVKTDAELSTLLKIPYGTLIGWKTRKNIPESRIAQMALILGIRRDTLIPA", "soluble fraction (log2)": -1.86}
{"sequence": "HMSEYIFGKNVVKEAFNNPSRIEEIYVLDKNMEFVSLAKKYHIKYTVITSSEMNKMVSGNHQGVVALVK", "soluble fraction (log2)": -2.1}
{"sequence": "HMSFDENEALRKALDVFWEKGYDGTSLSDLTEAMGINKPSLYATFGNKDQLFLKAIEMYENR", "soluble fraction (log2)": -1.4}
{"sequence": "HMSFDTFKKVFSNLVEKSGYSDAEIARRLGVNRSTISRWKSGEQSPPLPKVKEIANFFGVSPMVFVD", "soluble fraction (log2)": -0.41}
{"sequence": "HMSFFNGNQMKILRKKLQLNQEEMGEKLGIKKSYVSQLENNRKEITEEIDQILQELEQEYQDKM", "soluble fraction (log2)": -0.642}
{"sequence": "HMSFGESLKKLSIALNSIRKLATTDAGKKDPKVADLLGQIRDTFNSYRTHLRKNYPDLYSGIKNQL", "soluble fraction (log2)": -0.977}
{"sequence": "HMSFGKKLRSLRQEKKLSQVELSKKLNVTSQALSQYELGKRIPDAEMIIRIADFFDVSVDYLLDRT", "soluble fraction (log2)": -1.69}
{"sequence": "HMSFGWESLENKEGVADTDLHPSGWVRIEDSRIFVVSEGDFINKGSKVTVLTVDGNRVVVRELI", "soluble fraction (log2)": -2.1}
{"sequence": "HMSFNISPTKKLILELIMNGTAAVEAIAVKAGISKGMAYNHLRELRSMGYITDEGGYKITDSGRLAV", "soluble fraction (log2)": -2.39}
{"sequence": "HMSFNNHYEILQVQPSADREVIEAAAKALLKKHHPDLGGRNTITSHIVQAKKVLTDTSQRADFDARLRERL", "soluble fraction (log2)": -0.135}
{"sequence": "HMSFNSQENKSVLWQFLLENNFFIGLSDKKFNKVKDIFEKNIQSISIVNDSISNKNKILIQKMMEELELL", "soluble fraction (log2)": -3.38}
{"sequence": "HMSFPDTYFKGNKVIGLSYNDLKKFLNNAGYSKFDEEVEEWGEKRVSIEDDMVDFYLEDDKVVSI", "soluble fraction (log2)": -0.361}
{"sequence": "HMSFPFLMPNLEGLQLDQVRVILEENGLEIGQENYQPDSKFGPGTIINHQPSVDTVVQTGQKVNLQISGTD", "soluble fraction (log2)": 0.126}
{"sequence": "HMSFSSLSNDILSEIQKDNNITYDELSEKLQKDRATIYRNMKKLVENGLLKRVGGRKSGHWEIIE", "soluble fraction (log2)": -0.102}
{"sequence": "HMSFVDFYGLFTTELQRLAELPVTADELIKNTGLHKSQLTDWLKRAEEDGVVKKLNRPVRYQVEKK", "soluble fraction (log2)": -1.66}
{"sequence": "HMSGAQIQQLLESRAPQPGMNPDMIVRRKTYMNNVFNALKGALLRVANGSSPEEVKTEVDAAIQVDPDKL", "soluble fraction (log2)": 0.353}
{"sequence": "HMSGEVLTAVVPETASGERLDKVLPQIFPPYSRSQLQTWLKEGRVTLDREIPAARLAVIGGETLRLEVPSL", "soluble fraction (log2)": -0.112}
{"sequence": "HMSGFFVYPNPAKSNIIHFPNKKSFYIYDTSGRLLIEGKGKDFIDVSTLDRGVYLLKTFENDIVKIII", "soluble fraction (log2)": -1.1}
{"sequence": "HMSGGIVRLAVKPWGEVFVDGASRGITPPLKQLTLDAGVHRIEIRNPAGPSWTKDVDVVAGQPTTVSHRF", "soluble fraction (log2)": -0.494}
{"sequence": "HMSGITDIITDGKATSRPVVVTDGGHIRVLSPYTSFAIYTLGGMSLPTESRLEPGIYIVVVDSNAVKVAV", "soluble fraction (log2)": -1.59}
{"sequence": "HMSGLGELTPRELEVLELMAQGLSNSQIAGRLFLSGAAVAKHVSSIFSKLGFEPGDENRRVRAILAFLNR", "soluble fraction (log2)": -1.41}
{"sequence": "HMSGLLTTSKLAQKHKMKTEPMLEKLTAAGYLEWRDDKHSLTEQGKKAGGQFKTGRFGAYFLWPEDLV", "soluble fraction (log2)": -0.116}
{"sequence": "HMSGPDGLTEREIEVLRLLASGLSNRAIGERLYISTNTAANHVRSILLKTGAANRTQAAMYAADHEML", "soluble fraction (log2)": -1.66}
{"sequence": "HMSGPFTELTPREREILSHLAEGQSNKVIARHLQISDGTVKLHVKAILRKLEVHSRVEAAVMAVEHGV", "soluble fraction (log2)": -2.18}
{"sequence": "HMSGPMVPNVVGLSEEMARALLSDYSITIKHAHDGVIPKDRVASQLPLATTHAKVGSSVVLTIS", "soluble fraction (log2)": -0.557}
{"sequence": "HMSGQLTEEQVKQIVTTAVKNSSGSTLTAAEVSRIVSTAVANNLTADQVKTVVNNALAGITTDISTLKA", "soluble fraction (log2)": 0.124}
{"sequence": "HMSGSFDVTLDYLNSLRNLYPAIDVEQEFRKMYAWLDSNPKNRKTERGIKRFITGWLGRAQDKAP", "soluble fraction (log2)": -1.31}
{"sequence": "HMSGSLLQTRQRLQALTDLGHYKGDLAAAWGPEAIEALKRAQAALGITVDGKWGPETEDAIQVALQAQT", "soluble fraction (log2)": -0.00363}
{"sequence": "HMSGSPREQAESEYRKAIAAVNQGRVSEATESLRAALRLDAFQVAARQLLVKLLLEAKNQDEAIQVLR", "soluble fraction (log2)": -0.986}
{"sequence": "HMSGTMYATAEVNVRSTYSSDGTIYGTLSKGTAVEITGTTDNGWVRVKYNGTTAYVYADYLSWKAP", "soluble fraction (log2)": -2.41}
{"sequence": "HMSGYAIVNNQPGRTLNLRNSPSQSNNIIGQIPSGTRLQLISRGETWSEVIFQTTRGFVMSSFLRFET", "soluble fraction (log2)": -2.38}
{"sequence": "HMSHGNAALTPRQRLRLARLVVDDQWSVSAAAEFFRVSYPTAAKWARRYVELGPAGMADRSS", "soluble fraction (log2)": -1.62}
{"sequence": "HMSHRVGDVVELTAVRMNDQGVFLDAGTGNTSDDILLHKHQMTSPVSVGDKVKVQLYLDAKNRITASMKL", "soluble fraction (log2)": -0.36}
{"sequence": "HMSIEIIEITSNSSPKNLSEIIDIDATQIVADLMGLGIMKAIDTPLENSEIEQLLEKYNLIAEFVE", "soluble fraction (log2)": -2.76}
{"sequence": "HMSILEIFGRNVQKYRKEQRLSQEKLAEYAGLHRTYIGMIERAEKNITLVNIEKIAKALNINLTKLLE", "soluble fraction (log2)": -4.25}
{"sequence": "HMSILTELDIGDKVEVVAGPFKGIQANITRIEPVRKEVTVILLDAPYQLPVTVDADYLKIIQKS", "soluble fraction (log2)": -1.63}
{"sequence": "HMSINISFEPADHLGKDVIFIRFPYDNEWIQRVRKLKGAKWSQSQRAWHVPDTEHYRTLFQLPQKI", "soluble fraction (log2)": -2.73}
{"sequence": "HMSIQDLMNSKDLSGFKVEMLSNEDIVKYKSMLQSSGFSESQAEQLALQRGLPTSELIKLRTRISDVAVT", "soluble fraction (log2)": 0.199}
{"sequence": "HMSIQELMNSKDLSSFKVEMLSDEDIAKYKGLLQNSGLTEAQAEQMALQRGLPSSELLKLKARLSGI", "soluble fraction (log2)": 0.118}
{"sequence": "HMSIQREIILEVIKNNRTHPTAEEIYILVTKKEPKISRSTVYRNINILVEKGIIEKITIATGPDRYDY", "soluble fraction (log2)": -1.53}
{"sequence": "HMSISDEDFAKLLDFVKEKWDAGELDNAEDIKAAISEGEKEFGVSLDESTRTTLASALQQLN", "soluble fraction (log2)": 0.274}
{"sequence": "HMSIYDAPIEDLKFSTRIFNSLKRADIHTVADLIAHSRDDLMKVRNLGATSLDELIEKLGTHGLQLADP", "soluble fraction (log2)": -0.412}
{"sequence": "HMSIYYQIYESLKKDLSNNLYKPGEKLPSENVLSKRFGVNRHTIRRSLQLLKNEGILFSKRGSGIIVHD", "soluble fraction (log2)": -3.45}
{"sequence": "HMSKDKEKRTREHVLGILKKYDKVMTDKAFTVFKKMIKDESILEMELIKLINFIGERKEIRSKDVLAVVTE", "soluble fraction (log2)": -0.504}
{"sequence": "HMSKEIQNILASLPSVDVLLKQIDPIYPHGKAKEATQQVVARLRESVVDGTRKTVIDQKEVIAMIHKQLEE", "soluble fraction (log2)": -0.293}
{"sequence": "HMSKETTYEVLSLKGDEWQTDTIYSDRDEAIEAARNLHGDPHIDGAKVISEVYDDKTGGSKETTIFNT", "soluble fraction (log2)": 0.535}
{"sequence": "HMSKHAIQNELEKIEGIGKQTADSLLKEFKSVKKLRTLPLSEIEKVIGKSKATIVFEALHKDK", "soluble fraction (log2)": 0.00931}
{"sequence": "HMSKHATLLEALADLSVKLKPHSQLPSERALSEEYGVSRMTLRRAIDVLQARGYIYSVPSKGLFVSEP", "soluble fraction (log2)": -1.89}
{"sequence": "HMSKHATLLEALAELTVKLKPHTQLPSERQLSEDFGVSRMTLRRAIDVMQSRGYIYTVPSKGLYVSEP", "soluble fraction (log2)": -1.72}
{"sequence": "HMSKIRTFRVKTVAVDQAYQVLKDYSPIKISTESNAVIIDLDESKTPAEIAGYLEKNGIKVDNIEVIAESE", "soluble fraction (log2)": 0.962}
{"sequence": "HMSKISKENEQQVIQIVQTLLLNVQDKSLITTQILNEKINLAVSLDTKYKENLDRDYIIEELIRRYSVW", "soluble fraction (log2)": -2.93}
{"sequence": "HMSKKIVLPAAITVKKFSETLDMPLGTVISELMKNGILATINERIDFETASIIAQDLGYEVSEEV", "soluble fraction (log2)": -0.216}
{"sequence": "HMSKKQEQALQSREKLLDAATALFAEHGYRDTSVQAIGEKAGVSRGSIFWHFGSKEGLLWAVVERAFTA", "soluble fraction (log2)": 0.303}
{"sequence": "HMSKKTQKDEVVDLFLKTGNEPLHYKEISKKTGIIVHNVRRITGQNVVGKTDNPVFKRVSPGVYKLID", "soluble fraction (log2)": -0.72}
{"sequence": "HMSKLSVSSLSSPEVQNQLKAAGIDVNSRQYQVVMKDMMGALDGRAGYTTVSAIKNRMRQYNADGDY", "soluble fraction (log2)": 0.687}
{"sequence": "HMSKMVEMSQEKSREKVARVKIEIQKMLDRKERVTVSGLERATGFSNSFFYRNEEVNQAVKEAQLKQ", "soluble fraction (log2)": -0.138}
{"sequence": "HMSKNIRQQFLDVLPKTFDRNQYLETAKKLSINAKTAEGYIKKFVEANLLDHPKHNHYINLKKVEEVETK", "soluble fraction (log2)": -0.0919}
{"sequence": "HMSKNYYEILGVTPDVELSQLKAVYRRLVRKYHPDINPDGELIFKDITEAYEVLSDEKQRKQYDMINGF", "soluble fraction (log2)": -0.596}
{"sequence": "HMSKPILSFVDPEKDPSHYVKRYITEETYKDWFSEHFPDYTLYEGIGITQEEYRNIVNELTKP", "soluble fraction (log2)": -0.5}
{"sequence": "HMSKPIYSELLREIRSGDVKELTLIPQRREVLVEYSDGRKATVSILANDQQVLRTAESAGVPLTVK", "soluble fraction (log2)": -0.0278}
{"sequence": "HMSKPVFQTHSVRSADSATVFDVLQTLLAGTPDARIAIDPKTNAIVAWARPETQEVIAKSIMEMEG", "soluble fraction (log2)": 0.0746}
{"sequence": "HMSKQIEVPDVTDMTVSDAIDVLQDKGFVVSDEQKEVASSEIEEGRVVRTSPAVGSKRKDGTVVTLYVSI", "soluble fraction (log2)": 0.353}
{"sequence": "HMSKTEEIAYTTFVKYLENKDIEEVYLGNNAKIKVILKDGREMITDNPRTADFKKDLLLHDIKVVEKT", "soluble fraction (log2)": -0.0889}
{"sequence": "HMSKYGIAYSEVLEILKHIPIEDYNKIPRNEIELFETYADKDFTFNYDSSKTLEEQNVSNITKGIIIL", "soluble fraction (log2)": -0.56}
{"sequence": "HMSLEEQNGAKDRQVEAYELLLKAQRALDQEDTAGFQAAMKDLEPLSSQLDAQGQTLYHELLPFVS", "soluble fraction (log2)": -0.232}
{"sequence": "HMSLGSNISRLRAEKHLSQGDLAEALDVSRQSVSKWETDGSVPDLDKLVKLSRIFGVTLDELVTGTP", "soluble fraction (log2)": -0.039}
{"sequence": "HMSLIHEQSLKEIRIFINNLPESLRTAFTLREQDGLSYEEISKITDTPIGTVRSRIFRARESILEHINEEL", "soluble fraction (log2)": -2.25}
